Experimental data published in the supplement of paper PMC12458215.
± gives the uncertainty stated by the source.

What follows are sequences tested on HEK293T (assay: plasma membrane surface immunostaining intensity (anti-HA, deep receptor scanning) (arbitrary fluorescence units); higher = higher plasma membrane expression). Conditions: GPCR class: A.

In order of falling “plasma membrane surface immunostaining intensity” value:
1. MQMADAATIATMNKAAGGDKLAELFSLVPDLLEAANTSGNASLQLPDLWWELGLELPDGAPPGHPPGSGGAESADTEARVRILISVVYWVVCALGLAGNLLVLYLMKSMQGWRKSSINLFVTNLALTDFQFVLTLPFWAVENALDFKWPFGKAMCKIVSMVTSMNMYASVFFLTAMSVTRYHSVASALKSHRTRGHGRGDCCGRSLGDSCCFSAKALCVWIWALAALASLPSAIFSTTVKVMGEELCLVRFPDKLLGRDRQFWLGLYHSQKVLLGFVLPLGIIILCYLLLVRFIADRRAAGTKGGAAVAGGRPTGASARRLSKVTKSVTIVVLSFFLCWLPNQALTTWSILIKFNAVPFSQEYFLCQVYAFPVSVCLAHSNSCLNPVLYCLVRREFRKALKSLLWRIASPSITSMRPFTATTKPEHEDQGLQAPAPPHAAAEPDLLYYPPGVVVYSGGRYDLLPSSSAY [RXFP3]  979 ± 290
2. MQPPPSLCGRALVALVLACGLSRIWGEERGFPPDRATPLLQTAEIMTPPTKTLWPKGSNASLARSLAPAEVPKGDRTAGSPPRTISPPPCQGPIEIKETFKYINTVVSCLVFVLGIIGNSTLLRIIYKNKCMRNGPNILIASLALGDLLHIVIDIPINVYKLLAEDWPFGAEMCKLVPFIQKASVGITVLSLCALSIDRYRAVASWSRIKGIGVPKWTAVEIVLIWVVSVVLAVPEAIGFDIITMDYKGSYLRICLLHPVQKTAFMQFYKTAKDWWLFSFYFCLPLAITAFFYTLMTCEMLRKKSGMQIALNDHLKQRREVAKTVFCLVLVFALCWLPLHLSRILKLTLYNQNDPNRCELLSFLLVLDYIGINMASLNSCINPIALYLVSKRFKNCFKSCLCCWCQSFEEKQSLEEKQSCLKFKANDHGYDNFRSSNKYSSS [EDNRB]  794 ± 140
3. MRLSAGPDAGPSGNSSPWWPLATGAGNTSREAEALGEGNGPPRDVRNEELAKLEIAVLAVTFAVAVLGNSSVLLALHRTPRKTSRMHLFIRHLSLADLAVAFFQVLPQMCWDITYRFRGPDWLCRVVKHLQVFGMFASAYMLVVMTADRYIAVCHPLKTLQQPARRSRLMIAAAWVLSFVLSTPQYFVFSMIEVNNVTKARDCWATFIQPWGSRAYVTWMTGGIFVAPVVILGTCYGFICYNIWCNVRGKTASRQSKGAEQAGVAFQKGFLLAPCVSSVKSISRAKIRTVKMTFVIVTAYIVCWAPFFIIQMWSVWDPMSVWTESENPTITITALLGSLNSCCNPWIYMFFSGHLLQDCVQSFPCCQNMKEKFNKEDTDSMSRRQTFYSNNRSPTNSTGMWKDSPKSSKSIKFIPVST [AVPR1A]  497 ± 41
4. MRAVFIQGAEEHPAAFCYQVNGSCPRTVHTLGIQLVIYLACAAGMLIIVLGNVFVAFAVSYFKALHTPTNFLLLSLALADMFLGLLVLPLSTIRSVESCWFFGDFLCRLHTYLDTLFCLTSIFHLCFISIDRHCAICDPLLYPSKFTVRVALRYILAGWGVPAAYTSLFLYTDVVETRLSQWLEEMPCVGSCQLLLNKFWGWLNFPLFFVPCLIMISLYVKIFVVATRQAQQITTLSKSLAGAAKHERKAAKTLGIAVGIYLLCWLPFTIDTMVDSLLHFITPPLVFDIFIWFAYFNSACNPIIYVFSYQWFRKALKLTLSQKVFSPQTRTVDLYQE [TAAR5]  381 ± 140
5. MRAPGALLARMSRLLLLLLLKVSASSALGVAPASRNETCLGESCAPTVIQRRGRDAWGPGNSARDVLRARAPREEQGAAFLAGPSWDLPAAPGRDPAAGRGAEASAAGPPGPPTRPPGPWRWKGARGQEPSETLGRGNPTALQLFLQISEEEEKGPRGAGISGRSQEQSVKTVPGASDLFYWPRRAGKLQGSHHKPLSKTANGLAGHEGWTIALPGRALAQNGSLGEGIHEPGGPRRGNSTNRRVRLKNPFYPLTQESYGAYAVMCLSVVIFGTGIIGNLAVMCIVCHNYYMRSISNSLLANLAFWDFLIIFFCLPLVIFHELTKKWLLEDFSCKIVPYIEVASLGVTTFTLCALCIDRFRAATNVQMYYEMIENCSSTTAKLAVIWVGALLLALPEVVLRQLSKEDLGFSGRAPAERCIIKISPDLPDTIYVLALTYDSARLWWYFGCYFCLPTLFTITCSLVTARKIRKAEKACTRGNKRQIQLESQMNCTVVALTILYGFCIIPENICNIVTAYMATGVSQQTMDLLNIISQFLLFFKSCVTPVLLFCLCKPFSRAFMECCCCCCEECIQKSSTVTSDDNDNEYTTELELSPFSTIRREMSTFASVGTHC [GPR37]  158 ± 26

Same assay, conditions: GPCR class: A (Olfactory)

In order of falling “plasma membrane surface immunostaining intensity” value:
1. MQPYTKNWTQVTEFVMMGFAGIHEAHLLFFILFLTMYLFTLVENLAIILVVGLDHRLRRPMYFFLTHLSCLEIWYTSVTVPKMLAGFIGVDGGKNISYADCLSQLFIFTFLGATECFLLAAMAYDRYVAICMPLHYGAFVSWGTCIRLAAACWLVGFLTPILPIYLLSQLTFYGPNVIDHFSCDASPLLALSCSDVTWKETVDFLVSLAVLLASSMVIAVSYGNIVWTLLHIRSAAERWKAFSTCAAHLTVVSLFYGTLFFMYVQTKVTSSINFNKVVSVFYSVVTPMLNPLIYSLRNKEVKGALGRVFSLNFWKGQ [OR6Q1]  392 ± 120
2. MQLNNNVTEFILLGLTQDPFWKKIVFVIFLRLYLGTLLGNLLIIISVKTSQALKNPMFFFLFYLSLSDTCLSTSITPRMIVDALLKKTTISFSECMIQVFSSHVFGCLEIFILILTAVDRYVDICKPLHYMTIISQWVCGVLMAVAWVGSCVHSLVQIFLALSLPFCGPNVINHCFCDLQPLLKQACSETYVVNLLLVSNSGAICAVSYVMLIFSYVIFLHSLRNHSAEVIKKALSTCVSHIIVVILFFGPCIFMYTCLATVFPMDKMIAVFYTVGTSFLNPVIYTLKNTEVKSAMRKLWSKKLITDDKR [OR4C16]  162 ± 72
3. MQPESGANGTVIAEFILLGLLEAPGLQPVVFVLFLFAYLVTVRGNLSILAAVLVEPKLHTPMYFFLGNLSVLDVGCISVTVPSMLSRLLSRKRAVPCGACLTQLFFFHLFVGVDCFLLTAMAYDRFLAICRPLTYSTRMSQTVQRMLVAASWACAFTNALTHTVAMSTLNFCGPNVINHFYCDLPQLFQLSCSSTQLNELLLFAVGFIMAGTPMALIVISYIHVAAAVLRIRSVEGRKKAFSTCGSHLTVVAIFYGSGIFNYMRLGSTKLSDKDKAVGIFNTVINPMLNPIIYSFRNPDVQSAIWRMLTGRRSLA [OR3A1]  125 ± 18
4. MQRANHSTVTQFILVGFSVFPHLQLMLFLLFLLMYLFTLLGNLLIMATVWSERSLHTPMYLFLCALSVSEILYTVAIIPRMLADLLSTQRSIAFLACASQMFFSFSFGFTHSFLLTVMGYDRYVAICHPLRYNVLMSPRGCACLVGCSWAGGLVMGMVVTSAIFHLAFCGHKEIHHFACHVPPLLKLACGDDVLVVAKGVGLVCITALLGCFLLILLSYAFIVAAILKIPSAEGRNKAFSTCASHLTVVVVHYGFASVIYLKPKSPQSLEGDTLMGITYTVLTPFLSPIIFSLRNKELKVAMKKTFFSKLYPEKNVMM [OR10H1]  121 ± 17

Same assay, conditions: GPCR class: B

In order of rising “plasma membrane surface immunostaining intensity” value:
1. MQGPLLLPGLCFLLSLFGAVTQKTKTSCAKCPPNASCVNNTHCTCNHGYTSGSGQKLFTFPLETCNDINECTPPYSVYCGFNAVCYNVEGSFYCQCVPGYRLHSGNEQFSNSNENTCQDTTSSKTTEGRKELQKIVDKFESLLTNQTLWRTEGRQEISSTATTILRDVESKVLETALKDPEQKVLKIQNDSVAIETQAITDNCSEERKTFNLNVQMNSMDIRCSDIIQGDTQGPSAIAFISYSSLGNIINATFFEEMDKKDQVYLNSQVVSAAIGPKRNVSLSKSVTLTFQHVKMTPSTKKVFCVYWKSTGQGSQWSRDGCFLIHVNKSHTMCNCSHLSSFAVLMALTSQEEDPVLTVITYVGLSVSLLCLLLAALTFLLCKAIRNTSTSLHLQLSLCLFLAHLLFLVGIDRTEPKVLCSIIAGALHYLYLAAFTWMLLEGVHLFLTARNLTVVNYSSINRLMKWIMFPVGYGVPAVTVAISAASWPHLYGTADRCWLHLDQGFMWSFLGPVCAIFSANLVLFILVFWILKRKLSSLNSEVSTIQNTRMLAFKATAQLFILGCTWCLGLLQVGPAAQVMAYLFTIINSLQGFFIFLVYCLLSQQVQKQYQKWFREIVKSKSESETYTLSSKMGPDSKPSEGDVFPGQVKRKY [ADGRE3]  344 ± 13
2. MRGFNLLLFWGCCVMHSWEGHIRPTRKPNTKGNNCRDSTLCPAYATCTNTVDSYYCACKQGFLSSNGQNHFKDPGVRCKDIDECSQSPQPCGPNSSCKNLSGRYKCSCLDGFSSPTGNDWVPGKPGNFSCTDINECLTSSVCPEHSDCVNSMGSYSCSCQVGFISRNSTCEDVDECADPRACPEHATCNNTVGNYSCFCNPGFESSSGHLSFQGLKASCEDIDECTEMCPINSTCTNTPGSYFCTCHPGFAPSNGQLNFTDQGVECRDIDECRQDPSTCGPNSICTNALGSYSCGCIAGFHPNPEGSQKDGNFSCQRVLFKCKEDVIPDNKQIQQCQEGTAVKPAYVSFCAQINNIFSVLDKVCENKTTVVSLKNTTESFVPVLKQISTWTKFTKEETSSLATVFLESVESMTLASFWKPSANITPAVRTEYLDIESKVINKECSEENVTLDLVAKGDKMKIGCSTIEESESTETTGVAFVSFVGMESVLNERFFKDHQAPLTTSEIKLKMNSRVVGGIMTGEKKDGFSDPIIYTLENIQPKQKFERPICVSWSTDVKGGRWTSFGCVILEASETYTICSCNQMANLAVIMASGELTMDFSLYIISHVGIIISLVCLVLAIATFLLCRSIRNHNTYLHLHLCVCLLLAKTLFLAGIHKTDNKMGCAIIAGFLHYLFLACFFWMLVEAVILFLMVRNLKVVNYFSSRNIKMLHICAFGYGLPMLVVVISASVQPQGYGMHNRCWLNTETGFIWSFLGPVCTVIVINSLLLTWTLWILRQRLSSVNAEVSTLKDTRLLTFKAFAQLFILGCSWVLGIFQIGPVAGVMAYLFTIINSLQGAFIFLIHCLLNGQVREEYKRWITGKTKPSSQSQTSRILLSSMPSASKTG [ADGRE1]  948 ± 160
3. MRFTFTSRCLALFLLLNHPTPILPAFSNQTYPTIEPKPFLYVVGRKKMMDAQYKCYDRMQQLPAYQGEGPYCNRTWDGWLCWDDTPAGVLSYQFCPDYFPDFDPSEKVTKYCDEKGVWFKHPENNRTWSNYTMCNAFTPEKLKNAYVLYYLAIVGHSLSIFTLVISLGIFVFFRSLGCQRVTLHKNMFLTYILNSMIIIIHLVEVVPNGELVRRDPVSCKILHFFHQYMMACNYFWMLCEGIYLHTLIVVAVFTEKQRLRWYYLLGWGFPLVPTTIHAITRAVYFNDNCWLSVETHLLYIIHGPVMAALVVNFFFLLNIVRVLVTKMRETHEAESHMYLKAVKATMILVPLLGIQFVVFPWRPSNKMLGKIYDYVMHSLIHFQGFFVATIYCFCNNEVQTTVKRQWAQFKIQWNQRWGRRPSNRSARAAAAAAEAGDIPIYICHQELRNEPANNQGEESAEIIPLNIIEQESSA [CALCR]  5000 ± 720

Same assay, conditions: GPCR class: F

“MQRPGPRLWLVLQVMGSCAAISSMDMERPGDGKCQPIEIPMCKDIGYNMTRMPNLMGHENQREAAIQLHEFAPLVEYGCHGHLRFFLCSLYAPMCTEQVSTPIPACRVMCEQARLKCSPIMEQFNFKWPDSLDCRKLPNKNDPNYLCMEAPNNGSDEPTRGSGLFPPLFRPQRPHSAQEHPLKDGGPGRGGCDNPGKFHHVEKSASCAPLCTPGVDVYWSREDKRFAVVWLAIWAVLCFFSSAFTVLTFLIDPARFRYPERPIIFLSMCYCVYSVGYLIRLFAGAESIACDRDSGQLYVIQEGLESTGCTLVFLVLYYFGMASSLWWVVLTLTWFLAAGKKWGHEAIEANSSYFHLAAWAIPAVKTILILVMRRVAGDELTGVCYVGSMDVNALTGFVLIPLACYLVIGTSFILSGFVALFHIRRVMKTGGENTDKLEKLMVRIGLFSVLYTVPATCVIACYFYERLNMDYWKILAAQHKCKMNNQTKTLDCLMAASIPAVEIFMVKIFMLLVVGITSGMWIWTSKTLQSWQQVCSRRLKKKSRRKPASVITSGGIYKKAQHPQKTHHGKYEIPAQSPTCV [FZD10]” was tested, and the “plasma membrane surface immunostaining intensity” value was 2420 ± 580.
